For the test, the target named is PSI–LHCI as found in the chloroplast PSI–LHCI dimer (one monomer unit, without PsaH, PsaO and Lhca2) (Chlamydomonas reinhardtii) (UniProt P12154). As to the kind of experiment: cryo-EM structure; heavier green band of the sucrose gradient of affinity-purified PSI cross-linked with activated Pc; 1 mg chlorophyll/ml, vitrified at 4 °C; dimer refined with C2 symmetry, monomer with C1, focused classification on the Pc region.

As a reminder, the stoichiometry N is the number of molecules, sites or subunits per partner or assembly. Take “PSI–LHCI as found in the chloroplast PSI–LHCI dimer (one monomer unit, without PsaH, PsaO and Lhca2) (from UniProt P12154 1-751; P09144 1-735; Q39615 36-196; P12352 25-97; P12356 63-227; P14224 31-126; P14225 27-113) (complex)”: the stoichiometry N worked out at 2.
